Data taken from the DeepSol protein solubility set.

assay: soluble on expression in E. coli; label from the status in PepcDB or PDB records

Row | Sequence | soluble on expression in E. coli
1 | MIEFTALDDLSLLRESVSLECKLAQGRDGKGALPDDFWPTYSAMANTDGGIVILGVRERKGQFEVAGIENPDKLRTELFNHLNNRQKVSVNLLRDEDVRAWPVEGKTLLVVEIPRARRQQRPVYLRGNPLGGHTYRRLHEGDRPLPDEDVKRMLAEQVEDSRDERILPGYGLDDLHLESLRAYRQLFANRDPSHPWNALADQAFLRQIGGWRQHRETGEAGLTLAGLLMFGQWSSITEAVPLCFLDYQERPADYATTVQWLDRIVPDGTWSGNVFDFYRRVVGKLTADIKVPFVLKGDIRQDDTPTHKALREALVNTLVHADYTGRISVLVVKEPAGFVLRNPGGLRVPAQQALQGGMSDCRNRTMQQMFLMIGLGERAGSGMSRIVHGWRDLGHELHLRESYEPHEHSVLEMFWAKGRGATLASESSEESSEESSEETGKKILHLLREEPSLTASALARRLQLTPRAIEKQLEHHHHHH | not soluble
2 | MRGSHHHHHHGKQLTILGSTGSIGCSTLDVVRHNPEHFRVVALVAGKNVTRMVEQCLEFSPRYAVMDDEASAKLLKTMLQQQGSRTEVLSGQQAACDMAALEDVDQVMAAIVGAAGLLPTLAAIRAGKTILLANKESLVTCGRLFMDAVKQSKAQLLPVDSEHNAIFQSLPQPIQHNLGYADLEQNGVVSILLTGSGGPFRETPLRDLATMTPDQACRHPNWSMGRKISVDSATMMNKGLEYIEARWLFNASASQMEVLIHPQSVIHSMVRYQDGSVLAQLGEPDMRTPIAHTMAWPNRVNSGVKPLDFCKLSALTFAAPDYDRYPCLKLAMEAFEQGQAATTALNAANEITVAAFLAQQIRFTDIAALNLSVLEKMDMREPQCVDDVLSVDANAREVARKEVMRLASSACDLGTPGRPAAKLN | soluble
3 | LSGLTRPQEGTDEVTDAHASACLAALERGFDAEWGGFGGEPKFPRPAVLSFLFSHAVATGNRHALDMALLTLRKMAAGGIHDHLGVAGLGGGGFARYSTDRFWHVPHFEKMLYDNAQLAASYLEAYQASGDELFANTARDIFHYVLCDMTSPEGAFWSAEDADSLDPYGSGEKREGAFYLWTEQEITGLLDPEEATLFIATYGIRSDGNAPFDPHGEFTGKNILIRTMSDNELAGTFEIPIETVGKRLNSARKKLFEARKKRPRPGLDDKILTSWNGLMLSALAKGSLVLGDTTLLEAAERAARFILDTLCDSKSGKLLRRYRDGQAAIEGKAADYACLILGLLDLYSASFDSDWLRAAIKLAEAQIERFFDQEAGVFYSTAVEDHSVPLR | not soluble
4 | GSPPAQLSVHTVSWNSGHERAPTNLEELLGLNSGETPDVIAVAVQGFGFQTDKPQQGPACVKNFQSLLTSKGYTKLKNTITETMGLTVYCLEKHLDQNTLKNETIIVTVDDQKKSGGIVTSFTIYNKRFSFTTSRMSDEDVTSTNTKYAYDTRLDYSKKDDPSDFLFWIGDLNVRVETNATHAKSLVDQNNIDGLMAFDQLKKAKEQKLFDGWTEPQVTFKPTYKFKPNTDEYDLSATPSWTDRALYKSGTGKTIQPLSYNSLTNYKQTEHRPVLAKFRVTL | soluble
5 | SGQKVTGGIKTVDMRDPTYRPLKQELQGLDYCKPTRLDLLLDMPPVSYDVQLLHSWNNNDRSLNVFVKEDDKLIFHRHPVAQSTDAIRGKVGYTRGLHVWQITWAMRQRGTHAVVGVATADAPLHSVGYTTLVGNNHESWGWDLGRNRLYHDGKNQPSKTYPAFLEPDETFIVPDSFLVALDMDDGTLSFIVDGQYMGVAFRGLKGKKLYPVVSAVWGHCEIRMRYLNGLDPEPLPLMDLCRRSVRLALGRERLGEIHTLPLPASLKAYLLYQ | soluble
6 | MPKVYNSIVVDAPVERVWSRIRNFHDFSWAPSLIKSCKKVGGGGGYSVGARRLLNGEFLDTLIAYSEIERRIMYSMDEGPSPVSSGEIYNYVGNLHLLPVTIDDTTFVEWSGSWESASTEAVEYMNTVYRSLLADLAAEFTSESRRSEWIDQLEHHHHHH | soluble
7 | MWKRLCAGLSCRKFINQVTMTSVNKNRKSRDENEMAKYNEKELADTSKFLSFVLRHKPEAIGIVLDREGWADIDKLILCAQKAGKRLTRALLDTVVATSDKKRFSYSSDGRCIRAVQGHSTSQVAISFAEKTPPQFLYHGTASRFLDEIKKQGLIAGERHYVHLSADEATARKVGARHGSPVILTVKAQEMAKRGLPFWQAENGVWLTSTVAVEFLEW | soluble
8 | DVKLVQSGPGLVAPSQSLSITCTVSGFSLTTYGVSWVRQPPGKGLEWLGVIWGDGNTTYHSALISRLSISKDNSRSQVFLKLNSLHTDDTATYYCAGNYYGMDYWGQGTSVTVSSAETTAPSVYKLEPVSSVTLGCLVKGYFPEPVTLTWNSGSLSSGVHTFPAVLQSDLYTLSSSVTVTSSTWPSQSITCNVAHPASSTKVDKKIEPRG | soluble
9 | MIEVKHLKTLQALRNCGSLAAAAATLHQTQSALSHQFSDLEQRLGFRLFVRKSQPLRFTPQGEILLQLANQVLPQISQALQACNEPQQTRLRIAIECHSCIQWLTPALENFHKNWPQVEMDFKSGVTFDPQPALQQGELDLVMTSDILPRSGLHYSPMFDYEVRLVLAPDHPLAAKTRITPEDLASETLLIYPVQRSRLDVWRHFLQPAGVSPSLKSVDNTLLLIQMVAARMGIAALPHWVVESFERQGLVVTKTLGEGLWSRLYAAVRDGEQRQPVTEAFIRSARNHACDHLPFVKSAERPTYDAPTVRPGSPARL | soluble
10 | MSLKAVYIQKTGGPATIIVGSLPVPKVRPKSVLIKVIAASINYVDLFIRSGIYQTDLPNPYILGRDAIGQVVEIGKDVIQFKVGDCVWTNSMGYDGRQGITSEYALIPEERLFLTPKNADSLKLIGAVHSAATATIVLQDIMELKPKQKLLIEGAAGHVGSKLVYLANEMGAEVVTTASLKDFSRLKQLSDAICFDYRDKSLFKKLKSAYPDGFDHIIDTSGEIPLQFNCDLLAPKGVISLITAPKDSQFDSRQFYMNCQQMKGFVISHASLKQLKKAGRILNDAFRQGQLLEEDMVIKKFDKAAEAHDLMETKKENRKIILVEGHHHHHH | not soluble
11 | MGFTLKSLEFLQGVEPFRIDENHENEGASEEEEVLISAETDAGMSLMLEWKMRLSEDSDQCTTCNCPVDFGDRAVLLEHYQSLFHRTNTLRKARNMTVYTEEDFEGIENSENDLTSSQTTIGLESDDEEFDALLLPANRSFFIKNGSVFSVPRNILHVGERDVSSVTFLRPFDCAIFLWNGGHFAAAMFENDKMTVQKSFHRYVARAKQGGVQSQHDSGGKGAAKSAGAQLRRYNEQKMKEEIQSIMSSWKSRLQKTPLLFIRCAAYHRNIFFEADAGIETRDDRIRTIPFETKRPNIDEISDCWQRLQQVSEHGAESDFRAEMLEVREKRKKLARKVAGKKRKDGGMQMICEWSDDDENEDISKEKKTHHIKVRTIKKPEETVVQWPRLDDEWRQKTYNYVRQDSVEALKEHLASLNEDVTSEANDYLRNAKIPPNRSTFLHVSAANDARKCLKYFLEEVNCDSSTKDGAGLPPYSSSANSDVKSIFIDYRVKNETAGNWARTHIPEPKKKVELTEEQEREQAERKKEKKARQKEKEKLKKEIAKRDVEEMEERQKYVNMSEREKRALAVDRRLAGLPPILRCHQCGVQLPPTPFQYSHYNFCSTSCVAEHRKANPQ | not soluble
12 | MTTQVVNVIGAGLAGSEAAYQIAKRGVQVRLYEMRPVRQTPAHHTDKFAELVCSNSLRANTLTNAVGVIKEEMRLMDSVIIRAADECSVPAGGALAVDRHEFAAKVTEYVKNHPNVTVMNEEITEIPEGPTIIATGPLTSPDLSAQLKELTGEDYFYFYDAAAPIVEKDSIDMNKVYLKSRYDKGEAAYLNCPMTEEEFDRFYEALIAAETVPLKEFEKEIFFEGCMPVEVMASRGRQTLVFGPMKPVGLEDPKTGKTPYAVVQLRQDDAAGTLYNIVGFQTHLKWGPQKEVLQLIPGLENAEIVRYGVMHRNTFINSPNLLRPTYQYKQRDDLFFAGQMTGVEGYVESAASGLLAGINAARLVKGEEPVVLPPVTAMGSMANYITATNAKNFQPMNANFGLFAPLEKKIKKKAERNEAYATRALETIRNFVNILEHHHHHH | soluble
13 | MIINITILEDNESDFITLSDSIKKWAANTGILINIIWLNSYKKFIKSLPTLKCDLFFSDIELNCNNSFTGIDACKQLRESGYTGIIIFLTAFKEYVFDGYDVQAFNYLLKPINYGTINNCLDKFIHLFSREFYYLEHHHHHH | soluble
